Data from article PMC6657595, “A DNA-Binding Protein Tunes Septum Placement during Bacillus subtilis Sporulation”.

What was measured:
[1] = target: RefZ-His6 (wild-type RefZ) (Bacillus subtilis); test: crystal structure; RefZ-His6 at ~5 mg/ml, dialyzed into 50 mM Tris-HCl pH 8.5, 300 mM KCl with RBM dsDNA added (4:1 RefZ:DNA); hanging-drop vapor diffusion at 16°C; no DNA seen in the crystal; one molecule in the asymmetric unit of a P4(1)2(1)2 lattice; 2.6 Å
RefZ E53K-His6 = target: T1, RefZ E53K-His6 (Bacillus subtilis 168, UniProt O34970 1-207, E53K); test: BLI; Kd within 2-fold of WT; 150 mM KCl, 10 mM Tris-HCl pH 8.0; EMSA 10 nM DNA, 30 min, gel at room temperature; BLI 800 nM protein, 30 C; conditions: protein: recombinant; tags: C-terminal His6 (pET-24b NheI/XhoI); chain copies: 2; label: 5' biotin on S27 strand; blunt
T1 sequence: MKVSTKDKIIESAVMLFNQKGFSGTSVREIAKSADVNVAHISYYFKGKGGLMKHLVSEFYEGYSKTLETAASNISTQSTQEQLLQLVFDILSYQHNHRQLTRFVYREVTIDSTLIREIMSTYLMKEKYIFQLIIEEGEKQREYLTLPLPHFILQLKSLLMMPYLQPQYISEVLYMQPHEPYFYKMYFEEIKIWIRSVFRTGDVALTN

RefZ R116S-His6 = target: T2, RefZ R116S-His6 (Bacillus subtilis 168, UniProt O34970 1-207, R116S); test: as above; conditions: protein: recombinant; tags: C-terminal His6 (pET-24b NheI/XhoI); chain copies: 2; label: 5' biotin on S27 strand; blunt
T2 sequence: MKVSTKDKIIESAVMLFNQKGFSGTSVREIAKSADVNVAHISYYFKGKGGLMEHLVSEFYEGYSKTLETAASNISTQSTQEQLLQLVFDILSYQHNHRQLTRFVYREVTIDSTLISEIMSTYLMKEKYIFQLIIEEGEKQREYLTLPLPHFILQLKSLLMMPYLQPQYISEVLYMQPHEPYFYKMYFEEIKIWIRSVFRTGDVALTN

RefZ E61K-His6 = target: T3, RefZ E61K-His6 (Bacillus subtilis 168, UniProt O34970 1-207, E61K); test: as above; conditions: protein: recombinant; tags: C-terminal His6 (pET-24b NheI/XhoI); chain copies: 2; label: 5' biotin on S27 strand; blunt
T3 sequence: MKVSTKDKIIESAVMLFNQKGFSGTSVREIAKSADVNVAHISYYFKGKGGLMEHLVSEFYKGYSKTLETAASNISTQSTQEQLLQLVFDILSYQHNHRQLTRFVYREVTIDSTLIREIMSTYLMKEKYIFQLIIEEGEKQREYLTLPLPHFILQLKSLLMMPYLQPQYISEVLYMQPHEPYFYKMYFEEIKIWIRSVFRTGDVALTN

RefZ E117D-His6 = target: T4, RefZ E117D-His6 (Bacillus subtilis 168, UniProt O34970 1-207, E117D); test: as above; conditions: protein: recombinant; tags: C-terminal His6 (pET-24b NheI/XhoI); chain copies: 2; label: 5' biotin on S27 strand; blunt
T4 sequence: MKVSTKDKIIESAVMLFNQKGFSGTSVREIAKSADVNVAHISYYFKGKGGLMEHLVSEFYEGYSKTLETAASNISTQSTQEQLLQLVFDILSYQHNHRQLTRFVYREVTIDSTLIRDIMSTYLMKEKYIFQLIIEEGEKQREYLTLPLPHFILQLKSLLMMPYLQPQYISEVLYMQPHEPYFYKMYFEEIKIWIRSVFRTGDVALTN

RefZ R102C-His6 = target: T5, RefZ R102C-His6 (Bacillus subtilis 168, UniProt O34970 1-207, R102C); test: as above; conditions: protein: recombinant; tags: C-terminal His6 (pET-24b NheI/XhoI); chain copies: 2; label: 5' biotin on S27 strand; blunt
T5 sequence: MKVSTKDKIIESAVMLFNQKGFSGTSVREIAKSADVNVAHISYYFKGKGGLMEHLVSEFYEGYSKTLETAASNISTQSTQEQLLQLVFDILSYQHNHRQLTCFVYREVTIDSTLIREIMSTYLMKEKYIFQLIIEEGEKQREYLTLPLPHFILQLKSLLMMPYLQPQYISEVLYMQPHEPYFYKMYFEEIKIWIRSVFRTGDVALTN

RefZ R102S-His6 = target: T6, RefZ R102S-His6 (Bacillus subtilis 168, UniProt O34970 1-207, R102S); test: as above; conditions: protein: recombinant; tags: C-terminal His6 (pET-24b NheI/XhoI); chain copies: 2; label: 5' biotin on S27 strand; blunt
T6 sequence: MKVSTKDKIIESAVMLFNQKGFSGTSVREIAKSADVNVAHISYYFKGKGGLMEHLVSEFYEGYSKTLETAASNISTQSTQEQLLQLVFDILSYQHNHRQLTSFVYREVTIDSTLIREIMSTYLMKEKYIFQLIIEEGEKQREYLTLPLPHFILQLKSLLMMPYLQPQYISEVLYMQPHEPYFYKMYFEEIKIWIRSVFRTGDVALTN

RefZ E179K-His6 = target: T7, RefZ E179K-His6 (Bacillus subtilis 168, UniProt O34970 1-207, E179K); test: as above; conditions: protein: recombinant; tags: C-terminal His6 (pET-24b NheI/XhoI); chain copies: 2; label: 5' biotin on S27 strand; blunt
T7 sequence: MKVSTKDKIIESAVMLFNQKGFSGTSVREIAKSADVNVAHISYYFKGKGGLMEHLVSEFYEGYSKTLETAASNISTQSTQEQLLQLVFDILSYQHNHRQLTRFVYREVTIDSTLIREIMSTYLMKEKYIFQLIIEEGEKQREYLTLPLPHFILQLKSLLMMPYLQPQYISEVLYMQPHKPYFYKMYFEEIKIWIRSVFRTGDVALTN

RefZ E117G-His6 = target: T8, RefZ E117G-His6 (Bacillus subtilis 168, UniProt O34970 1-207, E117G); test: BLI; within 2-fold of WT, P = 0.025; 150 mM KCl, 10 mM Tris-HCl pH 8.0; EMSA 10 nM DNA, 30 min, gel at room temperature; BLI 800 nM protein, 30 C; conditions: protein: recombinant; tags: C-terminal His6 (pET-24b NheI/XhoI); chain copies: 2; label: 5' biotin on S27 strand; blunt
T8 sequence: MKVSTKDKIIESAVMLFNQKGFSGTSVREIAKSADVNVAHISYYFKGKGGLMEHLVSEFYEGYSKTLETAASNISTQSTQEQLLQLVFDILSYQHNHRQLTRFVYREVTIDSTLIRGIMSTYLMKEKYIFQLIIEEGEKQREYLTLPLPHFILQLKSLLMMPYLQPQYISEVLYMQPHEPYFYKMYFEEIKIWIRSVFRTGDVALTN

RefZ-His6 (WT) = target: T9, RefZ-His6 (WT) (Bacillus subtilis PY79, UniProt O34970 1-207); test: BLI; Kd value only in Fig. 6 image; reference; 150 mM KCl, 10 mM Tris-HCl pH 8.0; EMSA 10 nM DNA, 30 min, gel at room temperature; BLI 800 nM protein, 30 C; conditions: protein: recombinant; tags: C-terminal His6 (pET-24b NheI/XhoI); chain copies: 2; label: 5' biotin on S27 strand; blunt
T9 sequence: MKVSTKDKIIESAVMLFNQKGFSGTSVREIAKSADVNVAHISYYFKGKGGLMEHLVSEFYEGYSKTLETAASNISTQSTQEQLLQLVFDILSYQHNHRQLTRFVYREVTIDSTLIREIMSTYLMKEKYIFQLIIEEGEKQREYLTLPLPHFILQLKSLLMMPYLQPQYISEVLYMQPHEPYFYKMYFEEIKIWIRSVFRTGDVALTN

Molecule: RefZ-His6 (wild-type RefZ) (natural protein)
- stoichiometry N [1]: 2

B1: RBML1 41-bp (dsDNA)
DNA 1: GCCTTTTCGTTTTGAACAAACGTTTGATTAAAACAAATAGC
DNA 2: GCTATTTGTTTTAATCAAACGTTTGTTCAAAACGAAAAGGC
- binding result (RefZ E53K-His6): binds
- binding result (RefZ R116S-His6): binds
- binding result (RefZ E61K-His6): binds
- binding result (RefZ E117D-His6): binds
- binding result (RefZ R102C-His6): binds
- binding result (RefZ R102S-His6): binds
- binding result (RefZ E179K-His6): binds
- binding result (RefZ E117G-His6): binds
- binding result (RefZ-His6 (WT)): binds
